Patent US20120023600A1 (Novartis, published 2012)
Substitutions are numbered along the chain they refer to.

Columns and labels:
human DKK4 [1] = target: T1, human DKK4 (human, UniProt Q9UBT3 19-224); test: SPR (Biacore T100)
T1 construct: also called Dickkopf-4
T1 sequence: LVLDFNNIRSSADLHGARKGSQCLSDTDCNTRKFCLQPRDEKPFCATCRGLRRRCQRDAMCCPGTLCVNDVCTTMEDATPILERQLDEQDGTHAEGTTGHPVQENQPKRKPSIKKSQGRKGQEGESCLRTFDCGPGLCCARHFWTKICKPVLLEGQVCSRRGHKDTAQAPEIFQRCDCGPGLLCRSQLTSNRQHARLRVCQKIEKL

[2] = target: T2, N-linked deglycosylated rhDKK1 (human, UniProt O94907 32-266, N-linked glycan removed with the enzyme PNGase F); test: SPR (Biacore T100)
T2 construct: Same HIS-tagged HEK protein as WT rhDKK1 (Batch BTP7757) after PNGase F treatment; also called N-DEGLY DKK1; DKK1 (N-degly)
T2 sequence: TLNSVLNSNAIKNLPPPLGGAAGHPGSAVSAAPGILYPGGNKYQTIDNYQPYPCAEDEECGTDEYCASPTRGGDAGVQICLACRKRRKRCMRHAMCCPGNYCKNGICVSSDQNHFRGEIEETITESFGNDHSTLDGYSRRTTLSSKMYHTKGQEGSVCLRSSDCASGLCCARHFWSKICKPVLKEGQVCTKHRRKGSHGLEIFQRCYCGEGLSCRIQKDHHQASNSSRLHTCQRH

human DKK2 = target: T3, human DKK2 (human, UniProt Q9UBU2 34-259); test: immunoprecipitation
T3 construct: tested by immunoprecipitation
T3 sequence: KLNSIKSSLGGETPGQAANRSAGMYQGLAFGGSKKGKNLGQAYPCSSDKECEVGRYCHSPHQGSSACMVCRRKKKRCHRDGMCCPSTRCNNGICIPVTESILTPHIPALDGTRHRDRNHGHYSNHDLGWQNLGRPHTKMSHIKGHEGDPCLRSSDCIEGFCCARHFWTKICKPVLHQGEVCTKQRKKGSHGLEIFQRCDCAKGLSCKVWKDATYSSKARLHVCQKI

recombinant human DKK1 [3] = target: T4, recombinant human DKK1 (human, UniProt O94907 32-266); test: cell-based or functional assay
T4 sequence: T2 sequence

[4] = target: T5, wild type (WT) rhDKK1 (HEK HIS epitope tagged Batch# BTP7757) (human, UniProt O94907 32-266, N-glycosylated (one theoretical N-linked site at amino acid 256)); test: SPR (Biacore T100)
T5 construct: Made in HEK cells; also called WT DKK1; rhDKK1 (recombinant human DKK1) (Batch BTP7757)
T5 sequence: T2 sequence

[5] = target: T2, N-linked deglycosylated rhDKK1; test: SPR (Biacore T100); remark: listed apart in the source
recombinant human DKK1 [6] = target: T4, recombinant human DKK1; test: cell-based or functional assay; remark: listed apart in the source
mouse DKK1 (R&D Systems) = target: T6, mouse DKK1 (R&D Systems) (mouse, UniProt O54908 32-272); test: cell-based or functional assay
T6 sequence (looked up): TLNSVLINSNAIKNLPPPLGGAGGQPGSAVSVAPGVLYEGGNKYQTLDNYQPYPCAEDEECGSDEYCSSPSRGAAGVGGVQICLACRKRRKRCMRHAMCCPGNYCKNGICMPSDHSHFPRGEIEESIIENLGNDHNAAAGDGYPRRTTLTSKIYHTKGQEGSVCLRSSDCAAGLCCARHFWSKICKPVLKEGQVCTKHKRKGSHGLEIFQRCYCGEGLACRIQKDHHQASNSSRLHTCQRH

cynomolgus DKK1 = target: T7, cynomolgus DKK1 (cynomolgus monkey (Macaca fascicularis), UniProt A0A7N9IE82 32-266); test: cell-based or functional assay
T7 sequence: T2 sequence with H114N, T150S, S166T

rat DKK1 (Novartis) = target: T8, rat DKK1 (Novartis) (rat, UniProt A6I0Z0 32-270); test: cell-based or functional assay
T8 sequence: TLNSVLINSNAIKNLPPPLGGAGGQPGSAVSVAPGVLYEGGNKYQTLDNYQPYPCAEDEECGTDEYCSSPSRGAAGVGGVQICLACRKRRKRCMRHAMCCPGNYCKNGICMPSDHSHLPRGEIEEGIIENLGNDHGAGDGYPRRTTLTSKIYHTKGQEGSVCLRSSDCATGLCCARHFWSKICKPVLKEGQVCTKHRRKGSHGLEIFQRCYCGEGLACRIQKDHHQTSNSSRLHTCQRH

human DKK3 = human DKK3 (human, UniProt Q9UBP4 22-350); test: SPR (Biacore T100); NSB = No Significant binding, not detectable above background
human DKK4 [7] = target: T1, human DKK4; test: SPR (Biacore T100), antibody captured by anti-human IgG1 Fc, DKK in flow; average of three experiments
Description: (§1) FIG. 6. […] Anti-Human IgG1 Fc (Jackson Immuno Research, Cat#109-006-098) is immobilized onto each flow cell, followed by capture of a lead candidate at an expected capture of about 100 RU. […] The normalized data (background subtracted) are fit to a 1:1 binding with mass transport model using Kinetics analysis in BIA evaluation 1.0 software. This experiment is carried out in triplicate, and data presented are the average of these three experiments with standard deviation.

[8] = target: T5, wild type (WT) rhDKK1 (HEK HIS epitope …); test: as above
Description: as §1

[9] = target: T9, carboxyl terminal truncated DKK1 (deltaC, residues 1-185) with C-terminal HA epitope (Homo sapiens (Human), UniProt O94907 32-185); test: immunoprecipitation from conditioned medium of transfected Hek293 cells, protein G beads, SDS-PAGE, anti-HA blot [panel B.]
T9 construct: Secreted into conditioned medium of transfected Hek293 cells; Contains Cys-1 but not Cys-2
T9 sequence: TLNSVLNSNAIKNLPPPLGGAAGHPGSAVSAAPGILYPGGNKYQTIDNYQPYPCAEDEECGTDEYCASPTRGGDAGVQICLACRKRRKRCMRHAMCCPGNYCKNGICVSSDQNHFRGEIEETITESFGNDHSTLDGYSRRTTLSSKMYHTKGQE
Description: Full-length (FL, containing residues 1-266), carboxyl terminal truncated (ΔC, containing residues 1-185), and amino terminal truncated (ΔN, containing residues 1-60 plus residues 157-266), are fused with an HA epitope at their C termini, and Cloned into a mammalian expression vector under the control of the cytomegalovirus (CMV) promoter. […] 1/10 of total input is loaded as control.

[10] = target: T5, wild type (WT) rhDKK1 (HEK HIS epitope …); test: SPR, Biacore T100, CM5 chip; antibody captured on immobilised anti-human IgG1 Fc, rhDKK1 0.195-6.25 nM as analyte; 1:1 binding with mass transport; mean of three experiments with standard deviation [6B]
Description: as §1

Chain of human DKK3 (Q9UBP4 other isoform, or with tags, fused parts or gaps limits assumed): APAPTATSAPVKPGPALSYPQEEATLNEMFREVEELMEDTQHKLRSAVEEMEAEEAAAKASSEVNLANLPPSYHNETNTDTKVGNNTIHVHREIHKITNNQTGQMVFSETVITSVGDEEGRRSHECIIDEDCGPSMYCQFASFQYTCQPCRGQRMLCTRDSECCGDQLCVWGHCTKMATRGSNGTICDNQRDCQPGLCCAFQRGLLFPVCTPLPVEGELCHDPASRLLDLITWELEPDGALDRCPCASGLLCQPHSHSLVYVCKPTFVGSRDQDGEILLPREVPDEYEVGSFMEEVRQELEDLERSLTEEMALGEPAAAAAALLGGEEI

B1: anti-DKK1/4 antibody (antibody, V domains shown)
VH: QVQLVESGGGLVQPGGSLRLSCAASGFTFSSYWMSWVRQAPGKGLEWVSGISYSGSNTHYADSVKGRFTISRDNSKNTLYLQMNSLRAEDTAVYYCARMGIDLDYWGQGTLVTVSS
VL: DIALTQPASVSGSPGQSITISCTGTSSDVGGFNYVSWYQQHPGKAPKLMIHDGSNRPSGVSNRFSGSKSGNTASLTISGLQAEDEADYYCQSWDVSPITAVFGGGTKLTVLG
notes: also called neutralizing anti-DKK1/4 antibody; NVP-anti-DKK1/4 antibody-NX
fold lower affinity than for DKK1 (human DKK4 [1]): ~100 fold | fold lower affinity than for WT DKK1 [2]: 100 fold | binding result (human DKK2): no binding | apparent EC50, TCF/LEF luciferase reporter (SuperTopflash, Kremen) assay (recombinant human DKK1 [3]): 0.16 nM | Kd [4]: 0.00311 nM | koff [4]: 2.32e-05 s⁻¹ | kon [4]: 7.45e+06 M⁻¹ s⁻¹ | Kd [5]: 0.216 nM | koff [5]: 0.000307 s⁻¹ | kon [5]: 1.42e+06 M⁻¹ s⁻¹ | Reactivation of wnt3a signaling (TOPFlash) EC50 (pM) (recombinant human DKK1 [6]): 80.6 pM | Reactivation of wnt3a signaling (TOPFlash) EC50 (pM) (mouse DKK1 (R&D Systems)): 60.5 pM | Reactivation of wnt3a signaling (TOPFlash) EC50 (pM) (cynomolgus DKK1): 54.2 pM | Reactivation of wnt3a signaling (TOPFlash) EC50 (pM) (rat DKK1 (Novartis)): 255 pM | binding result (human DKK3): no binding | Kd (human DKK4 [7]): 0.297 nM | Kd [8]: 0.002 nM | binding result [9]: no binding | koff [10]: 9e-06 s⁻¹ | kon [10]: 4.6e+06 M⁻¹ s⁻¹
